Assay results: FireProtDB (doi:10.1002/prot.1147)
Several values for one entry are separate records, joined by “and”; a condition that tells them apart may be missing. Equal entries are not always repeated.

B1: Lysozyme C, P61626 (parent)
chain: MKALIVLGLVLLSVTVQGKVFERCELARTLKRLGMDGYRGISLANWMCLAKWESGYNTRATNYNAGDRSTDYGIFQINSRYWCNDGKTPGAVNACHLSCSALLQDNIADAVACAKRVVRDPQGIRAWVAWRNRCQNRDVRQYVQGCGV

Variants of: B1
Details: Homo sapiens; pH 2.4; Thermal; DSC; Gly-HCl 0.05 M; reversible: yes; structure 1LZ1; whole UniProt chain shown

Variant	Tm [°C]	unfolding enthalpy (calorimetric) [kcal/mol]
G66A	61.1	94.9

Same assay, conditions: Homo sapiens; pH 2.68; Thermal; DSC; Gly-HCl 0.05 M; reversible: yes; structure 1LZ1; whole UniProt chain shown

Variant	Tm [°C]	unfolding enthalpy (calorimetric) [kcal/mol]
G66A	66	102

Same assay, conditions: Homo sapiens; pH 2.7; 64.9 °C; Thermal; DSC; Gly-HCl 0.05 M; reversible: yes; structure 1LZ1; whole UniProt chain shown

Variant	ddG of mutation (higher = less stable) [kcal/mol]	heat capacity change of unfolding [kcal/mol/K]
G66A	-0.45	1.6
G147A	-0.14	1.29
G90A	0.36	1.43
G34A	1.39	1.58
G37A	1.77	1.58
G86A	0.12	1.65
G123A	0.62	1.36

Same assay, conditions: Homo sapiens; pH 2.7; Thermal; DSC; Gly-HCl 0.05 M; reversible: yes; structure 1LZ1; whole UniProt chain shown

Variant	Tm [°C]	change of melting temperature, mutant - wild type (higher = more stable) [°C]	heat capacity change of unfolding [kcal/mol/K]	unfolding enthalpy (calorimetric)
G66A	66.4	1.5	1.6	101 kcal/mol
G147A	65.4	0.5	1.29	99.7 kcal/mol
G90A	63.8	-1.1	1.43	109 kcal/mol
G55A	64	-0.9	1.53	108 kcal/mol
G34A	60.3	-4.6		96.3 kcal/mol and 103 kcal/mol
G37A	59.4	-5.5		102 kcal/mol and 111 kcal/mol
G86A	64.5	-0.4	1.65	108 kcal/mol
G40A	57.7	-7.2		77 kcal/mol and 88.4 kcal/mol
G123A	62.8	-2.1	1.36	103 kcal/mol

Same assay, conditions: Homo sapiens; pH 3.2; Thermal; DSC; Gly-HCl 0.05 M; reversible: yes; structure 1LZ1; whole UniProt chain shown

Variant	Tm [°C]	unfolding enthalpy (calorimetric) [kcal/mol]
G66A	75.1	117
G123A	71.8	112

Same assay, conditions: Homo sapiens; pH 2.67; Thermal; DSC; Gly-HCl 0.05 M; reversible: yes; structure 1LZ1; whole UniProt chain shown

Variant	Tm [°C]	unfolding enthalpy (calorimetric) [kcal/mol]
G147A	64.9	99.7

Same assay, conditions: Homo sapiens; pH 2.79; Thermal; DSC; Gly-HCl 0.05 M; reversible: yes; structure 1LZ1; whole UniProt chain shown

Variant	Tm [°C]	unfolding enthalpy (calorimetric) [kcal/mol]
G147A	67.1	102

Same assay, conditions: Homo sapiens; pH 2.8; Thermal; DSC; Gly-HCl 0.05 M; reversible: yes; structure 1LZ1; whole UniProt chain shown

Variant	Tm [°C]	unfolding enthalpy (calorimetric) [kcal/mol]
G147A	67.2	103

Same assay, conditions: Homo sapiens; pH 2.2; Thermal; DSC; Gly-HCl 0.05 M; reversible: yes; structure 1LZ1; whole UniProt chain shown

Variant	Tm [°C]	unfolding enthalpy (calorimetric) [kcal/mol]
G145A	54.6	94.2

Same assay, conditions: Homo sapiens; pH 2.6; Thermal; DSC; Gly-HCl 0.05 M; reversible: yes; structure 1LZ1; whole UniProt chain shown

Variant	Tm [°C]	unfolding enthalpy (calorimetric) [kcal/mol]
G145A	61.6	104
G55A	62.4	104
G86A	62.8	103

Same assay, conditions: Homo sapiens; pH 3.16; Thermal; DSC; Gly-HCl 0.05 M; reversible: yes; structure 1LZ1; whole UniProt chain shown

Variant	Tm [°C]	unfolding enthalpy (calorimetric) [kcal/mol]
G145A	71.1	118
G90A	72.2	120

Same assay, conditions: Homo sapiens; pH 2.38; Thermal; DSC; Gly-HCl 0.05 M; reversible: yes; structure 1LZ1; whole UniProt chain shown

Variant	Tm [°C]	unfolding enthalpy (calorimetric) [kcal/mol]
G90A	58.2	99.9
G55A	58.1	97

Same assay, conditions: Homo sapiens; pH 2.64; Thermal; DSC; Gly-HCl 0.05 M; reversible: yes; structure 1LZ1; whole UniProt chain shown

Variant	Tm [°C]	unfolding enthalpy (calorimetric) [kcal/mol]
G90A	62.6	106

Same assay, conditions: Homo sapiens; pH 3.18; Thermal; DSC; Gly-HCl 0.05 M; reversible: yes; structure 1LZ1; whole UniProt chain shown

Variant	Tm [°C]	unfolding enthalpy (calorimetric) [kcal/mol]
G55A	72.4	119

Same assay, conditions: Homo sapiens; pH 2.72; Thermal; DSC; Gly-HCl 0.05 M; reversible: yes; structure 1LZ1; whole UniProt chain shown

Variant	Tm [°C]	unfolding enthalpy (calorimetric) [kcal/mol]
G86A	64.9	109

Same assay, conditions: Homo sapiens; pH 3; Thermal; DSC; Gly-HCl 0.05 M; reversible: yes; structure 1LZ1; whole UniProt chain shown

Variant	Tm [°C]	unfolding enthalpy (calorimetric) [kcal/mol]
G86A	69.2	114

Same assay, conditions: Homo sapiens; pH 2.3; Thermal; DSC; Gly-HCl 0.05 M; reversible: yes; structure 1LZ1; whole UniProt chain shown

Variant	Tm [°C]	unfolding enthalpy (calorimetric) [kcal/mol]
G123A	56.1	90.8

Same assay, conditions: Homo sapiens; pH 2.65; Thermal; DSC; Gly-HCl 0.05 M; reversible: yes; structure 1LZ1; whole UniProt chain shown

Variant	Tm [°C]	unfolding enthalpy (calorimetric) [kcal/mol]
G123A	61.3	97.5
